Results reported in article PMC7480081.
pKd: −log10 of the molar value.

Target: T1, Csa3b (Sulfolobus islandicus REY15A) (UniProt F0NH47)
T1 sequence: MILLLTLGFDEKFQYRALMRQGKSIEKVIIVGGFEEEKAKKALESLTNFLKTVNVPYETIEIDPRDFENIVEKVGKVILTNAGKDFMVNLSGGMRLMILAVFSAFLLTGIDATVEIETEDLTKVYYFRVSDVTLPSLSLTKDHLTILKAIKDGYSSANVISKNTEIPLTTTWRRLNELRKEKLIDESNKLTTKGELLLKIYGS
Assay: LSPR
Conditions: DNA immobilized, LSPR (OpenSPR, COOH chip, 20 uL/min, 5 min, 1:1 fit; running buffer not stated), DNase I footprinting: 400 ng probe in 40 uL, 30 min at 30 C, DNase I 1 min at …

Row | Substance | pKd | pKd (20 uM 5'-CAAAA-3') | pKd (no CAAAA)
1 | cmr4 (cmr4-alpha) promoter (LSPR) | 7.76 | – | –
2 | csa1 promoter, full-length (LSPR) | – | 6.52 | 5.37
